Assay results reported in article PMC10676354.

Tests used:
[1] = fluorometric AGE assay, HEK293 mitochondria, MGO 30 min; settings: glycan lost; control: DJ1 WT
[2] = fluorometric AGE assay, HEK293 mitochondria, vehicle (PBS); settings: glycan lost; control: DJ1 WT

B1: DJ1: T19A (protein)
parent chain: MASKRALVILAKGAEEMETVIPVDVMRRAGIKVTVAGLAGKDPVQCSRDVVICPDASLEDAKKEGPYDVVVLPGGNLGAQNLSESAAVKEILKEQENRKGLIAAICAGPTALLAHEIGFGSKVTTHPLAKDKMMNGGHYTYSENRVEKDGLILTSRGPGTSFEFALAIVEALNGKEVAAQVKAPLVLKD
- other: mitochondrial protein glycation [1]: increases
- other: mitochondrial protein glycation [2]: no change
